Molecular target: Myc-tagged full-length FGD4 (FYVE, RhoGEF and PH domain-containing 4) (human) (UniProt Q96M96)
Chain of UniProt Q96M96 (Q96M96 whole entry, the tested form may be a part): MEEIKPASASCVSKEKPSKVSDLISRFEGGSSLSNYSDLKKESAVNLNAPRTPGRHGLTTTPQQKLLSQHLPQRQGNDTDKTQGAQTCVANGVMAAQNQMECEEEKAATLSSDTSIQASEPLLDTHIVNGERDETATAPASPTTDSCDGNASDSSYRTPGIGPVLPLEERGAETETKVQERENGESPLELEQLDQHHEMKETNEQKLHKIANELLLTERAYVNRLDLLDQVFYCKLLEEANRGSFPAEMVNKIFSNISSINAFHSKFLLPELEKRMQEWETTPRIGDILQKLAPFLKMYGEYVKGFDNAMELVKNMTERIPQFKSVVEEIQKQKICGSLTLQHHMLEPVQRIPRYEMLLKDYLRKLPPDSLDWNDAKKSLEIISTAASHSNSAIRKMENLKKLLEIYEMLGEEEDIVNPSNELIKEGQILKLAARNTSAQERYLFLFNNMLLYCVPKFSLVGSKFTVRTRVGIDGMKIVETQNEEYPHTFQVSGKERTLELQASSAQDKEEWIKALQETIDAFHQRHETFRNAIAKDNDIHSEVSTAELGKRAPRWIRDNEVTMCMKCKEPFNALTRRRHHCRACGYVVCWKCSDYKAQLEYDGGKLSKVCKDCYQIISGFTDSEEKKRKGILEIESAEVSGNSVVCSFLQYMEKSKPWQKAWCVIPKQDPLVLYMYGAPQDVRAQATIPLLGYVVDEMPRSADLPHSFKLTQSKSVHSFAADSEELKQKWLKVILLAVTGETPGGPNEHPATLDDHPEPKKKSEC

Q: For “Flag-CD40CT chimera: the entire transmembrane region of LMP1 (aa 1–177) replaced with that of CD40 (aa 1–214) (from UniProt P25942 21-214; P03230 178-386)”, which level of active Cdc42 (GST-CBD pull-down from NPC-TW01 lysates) on co-expression of FGD4 with CD40CT, compared with expression of FGD4 alone: did not promote Cdc42 activation is on record?
A: 1.1 fold

Q: “Flag-tagged full-length latent membrane protein 1 (LMP1) (from UniProt P03230 1-386) (natural protein)” was tested. Which level of active Cdc42 (GST-CBD pull-down from NPC-TW01 lysates) on co-expression of Myc-FGD4 with LMP1, compared with expression of FGD4 alone did it give?
A: 1.8 fold
